The text below walks through data of article PMC2763025 (Insect biochemistry and molecular biology, 2009).

In this experiment the target is Cry11Aa toxin, trypsin-activated (Bacillus thuringiensis subsp. …, UniProt P21256 1-643). Kind of experiment: ELISA. For orientation: In an ELISA, binding on a coated surface is turned into a signal by an enzyme label.

B1: truncated AaeAPN1 fragment AaeAPN1t (amino acids 525-778) (domain or fragment)
chain: RTYETGDIIISQERFISDRKVPNTNVWMIPYNYVHQSKADFDDLSTFSWLSTKAARINTEVPANEWIIFNKQQVGYYRVNYDANNWELITNALINNLSSIDRLNRAQLIDDAYWLARSGRLDIEVLMKLLTYLKDETEYAPWTAANNVLSYFNGKLRGTPAYKDFTTMVDHLIKKVYKTLDVTAVSDTEPLLHKYLKQTISTWACLIGNEDCLKRTKEALQKEVTEGIPVHPDVATVVYCNGLRTADVAEYQYL
The molecule B1 had a Kd of 8.5 nM.

A word on the Kd: it is the equilibrium constant for the complex coming apart. Read a high Kd as a looser complex.
